Measured values from US20060067886A1, “Gastrin receptor-avid peptide conjugates” (priority 1997, published 2006).

Test: Biodistribution of radiometal-DOTA-BBN conjugates in CF1 normal mice
Settings: 1 hour post-injection; for tissue uptake at 1 h: Avg % ID/gm

SMILES | Avg % ID, Blood [% ID] | Avg % ID, Carcass [% ID] | Avg % ID, Heart [% ID] | Avg % ID, Kidney [% ID] | Avg % ID, L. Intestine [% ID] | Avg % ID, Lung [% ID] | Avg % ID, Muscle [% ID] | Avg % ID, Pancreas [% ID] | Avg % ID, S. Intestine [% ID] | Avg % ID, Spleen [% ID] | Avg % ID, Stomach [% ID] | Avg % ID/gm, Blood [% ID/gm] | Avg % ID/gm, L. Intestine [% ID/gm] | Avg % ID/gm, Liver [% ID/gm] | Avg % ID/gm, Lung [% ID/gm] | Avg % ID/gm, Muscle [% ID/gm] | Avg % ID/gm, Pancreas [% ID/gm] | Avg % ID/gm, S. Intestine [% ID/gm] | Avg % ID/gm, Heart [% ID/gm] | Avg % ID/gm, Kidney [% ID/gm] | other results
CSCC[C@H](NC(=O)[C@H](CC(C)C)NC(=O)[C@H](Cc1cnc[nH]1)NC(=O)CNC(=O)[C@@H](NC(=O)[C@H](C)NC(=O)[C@H](Cc1c[nH]c2ccccc12)NC(=O)[C@H](CCC(N)=O)NC(=O)CN1CCN(CC(=O)O)CCN(CC(=O)O)CCN(CC(=O)O)CC1)C(C)C)C(N)=O [111In-DOTA-0-BBN[7-14]NH2, metal not drawn] | – | – | – | – | – | – | – | – | – | – | – | – | – | – | – | – | – | – | – | – | tissue uptake dose at 1 h (CF-1, mouse, in vivo, iv, total radioactivity, Avg % ID, Blood): 0.22 ± 0.07 %ID; tissue uptake dose at 1 h (CF-1, mouse, in vivo, iv, total radioactivity, Avg % ID, Heart): 0.01 %ID; tissue uptake dose at 1 h (CF-1, mouse, in vivo, iv, total radioactivity, Avg % ID, Kidney): 0.57 ± 0.02 %ID; tissue uptake dose at 1 h (CF-1, mouse, in vivo, iv, total radioactivity, Avg % ID, Liver): 0.17 ± 0.02 %ID; tissue uptake dose at 1 h (CF-1, mouse, in vivo, iv, total radioactivity, Avg % ID, Lung): 0.03 %ID; tissue uptake dose at 1 h (CF-1, mouse, in vivo, iv, total radioactivity, Avg % ID, Muscle): 0.01 %ID; tissue uptake dose at 1 h (CF-1, mouse, in vivo, iv, total radioactivity, Avg % ID, Pancreas): 0.07 ± 0.01 %ID; tissue uptake dose at 1 h (CF-1, mouse, in vivo, iv, total radioactivity, Avg % ID, Spleen): 0.01 %ID; dose excreted at 1 h (CF-1, mouse, in vivo, iv, total radioactivity, Avg % ID, Urine): 96.95 ± 0.37%; tissue uptake at 1 h (CF-1, mouse, in vivo, iv, total radioactivity, Heart): 0.05 ± 0.02 %ID/g; tissue uptake at 1 h (CF-1, mouse, in vivo, iv, total radioactivity, Kidney): 1.24 ± 0.14 %ID/g; tissue uptake at 1 h (CF-1, mouse, in vivo, iv, total radioactivity, Liver): 0.09 ± 0.01 %ID/g; tissue uptake at 1 h (CF-1, mouse, in vivo, iv, total radioactivity, Lung): 0.13 ± 0.03 %ID/g; tissue uptake at 1 h (CF-1, mouse, in vivo, iv, total radioactivity, Pancreas): 0.2 ± 0.04 %ID/g; tissue uptake at 1 h (CF-1, mouse, in vivo, iv, total radioactivity, Spleen): 0.08 ± 0.02 %ID/g
CSCC[C@H](NC(=O)[C@H](CC(C)C)NC(=O)[C@H](Cc1cnc[nH]1)NC(=O)CNC(=O)[C@@H](NC(=O)[C@H](C)NC(=O)[C@H](Cc1c[nH]c2ccccc12)NC(=O)[C@H](CCC(N)=O)NC(=O)CCCCCCCNC(=O)CN1CCN(CC(=O)O)CCN(CC(=O)O)CCN(CC(=O)O)CC1)C(C)C)C(N)=O [149Pm-DOTA-8-Aoc-BBN[7-14]NH2] [listing 1 of 2 here] | 0.23 ± 0.26 | 10.30 ± 1.84 | 0.00 ± 0.01 | 1.55 ± 0.47 | 4.43 ± 2.37 | 0.02 ± 0.04 | 0.01 ± 0.02 | 7.34 ± 3.51 | 7.84 ± 2.15 | 0.24 ± 0.06 | 0.66 ± 0.35 | 0.12 ± 0.13 | 4.14 ± 2.14 | 0.19 ± 0.12 | 0.09 ± 0.14 | 0.09 ± 0.21 | 28.29 ± 13.26 | 12.56 ± 16.70 | – | – | –
CSCC[C@H](NC(=O)[C@H](CC(C)C)NC(=O)[C@H](Cc1cnc[nH]1)NC(=O)CNC(=O)[C@@H](NC(=O)[C@H](C)NC(=O)[C@H](Cc1c[nH]c2ccccc12)NC(=O)[C@H](CCC(N)=O)NC(=O)CN1CCN(CC(=O)O)CCN(CC(=O)O)CCN(CC(=O)O)CC1)C(C)C)C(N)=O [177Lu-DOTA-0-BBN[7-14]NH2] [metal not drawn] | 0.39 ± 0.34 | 4.34 ± 2.64 | 0.01 ± 0.02 | 0.58 ± 0.10 | 0.09 ± 0.12 | 0.04 ± 0.06 | 0.02 ± 0.03 | 0.06 ± 0.10 | 1.27 ± 1.03 | 0.01 ± 0.01 | 0.05 ± 0.11 | 0.58 ± 0.96 | 0.07 ± 0.09 | 0.09 ± 0.06 | 0.19 ± 0.26 | 0.09 ± 0.15 | 0.18 ± 0.28 | 0.75 ± 0.60 | 0.04 ± 0.09 | 1.21 ± 0.31 | Avg % ID, Liver: 0.19 ± 0.10 % ID; Avg % ID/gm, Spleen: 0.04 ± 0.09 % ID/gm; Avg % ID/gm, Stomach: 0.10 ± 0.21 % ID/gm
CSCC[C@H](NC(=O)[C@H](CC(C)C)NC(=O)[C@H](Cc1cnc[nH]1)NC(=O)CNC(=O)[C@@H](NC(=O)[C@H](C)NC(=O)[C@H](Cc1c[nH]c2ccccc12)NC(=O)[C@H](CCC(N)=O)NC(=O)CN1CCN(CC(=O)O)CCN(CC(=O)O)CCN(CC(=O)O)CC1)C(C)C)C(N)=O [149Pm-DOTA-0-BBN[7-14]NH2] | 0.00 ± 0.00 | 1.98 ± 2.27 | 0.00 ± 0.00 | 0.34 ± 0.28 | 0.01 ± 0.02 | 0.00 ± 0.00 | 0.00 ± 0.00 | 0.07 ± 0.01 | 0.38 ± 0.25 | 0.00 ± 0.00 | 0.02 ± 0.05 | 0.00 ± 0.00 | 0.01 ± 0.03 | 0.12 ± 0.10 | 0.00 ± 0.00 | 0.00 ± 0.00 | 0.00 ± 0.00 | 0.27 ± 0.17 | 0.00 ± 0.00 | 1.04 ± 0.90 | Avg % ID, Liver: 0.16 ± 0.15 % ID; Avg % ID/gm, Spleen: 0.00 ± 0.00 % ID/gm; Avg % ID/gm, Stomach: 0.04 ± 0.08 % ID/gm
CSCC[C@H](NC(=O)[C@H](CC(C)C)NC(=O)[C@H](Cc1cnc[nH]1)NC(=O)CNC(=O)[C@@H](NC(=O)[C@H](C)NC(=O)[C@H](Cc1c[nH]c2ccccc12)NC(=O)[C@H](CCC(N)=O)NC(=O)CCCCCCCNC(=O)CN1CCN(CC(=O)O)CCN(CC(=O)O)CCN(CC(=O)O)CC1)C(C)C)C(N)=O [149Pm-DOTA-8-Aoc-BBN[7-14]NH2] [listing 2 of 2 here] | – | – | – | – | – | – | – | – | – | – | – | – | – | – | – | – | – | – | – | – | tissue uptake at 1 h (CF-1, mouse, in vivo, iv, total radioactivity, Stomach): 1.16 ± 0.59 %ID/g
CSCC[C@H](NC(=O)[C@H](CC(C)C)NC(=O)[C@H](Cc1c[nH]cn1)NC(=O)CNC(=O)[C@@H](NC(=O)[C@H](C)NC(=O)[C@H](Cc1c[nH]c2ccccc12)NC(=O)[C@H](CCC(N)=O)NC(=O)CCCCCCCCCCNC(=O)CN1CCN(CC(=O)O)CCN(CC(=O)O)CCN(CC(=O)O)CC1)C(C)C)C(N)=O [111In-DOTA-11-Aun-BBN[7-14]NH2] [metal not drawn] | – | – | 0.02 ± 0.01 | – | – | 0.08 ± 0.01 | 0.02 ± 0.01 | – | – | – | – | 0.34 ± 0.08 | – | – | 0.26 ± 0.05 | 0.09 ± 0.03 | – | – | 0.13 ± 0.04 | 2.06 ± 0.31 | –
CSCC[C@H](NC(=O)[C@H](CC(C)C)NC(=O)[C@H](Cc1c[nH]cn1)NC(=O)CNC(=O)[C@@H](NC(=O)[C@H](C)NC(=O)[C@H](Cc1c[nH]c2ccccc12)NC(=O)[C@H](CCC(N)=O)NC(=O)CCCCNC(=O)CN1CCN(CC(=O)O)CCN(CC(=O)O)CCN(CC(=O)O)CC1)C(C)C)C(N)=O [149Pm-DOTA-5-Ava-BBN[7-14]NH2] | 0.47 ± 0.11 | 6.16 ± 0.75 | 0.06 ± 0.09 | 1.11 ± 0.29 | 3.18 ± 1.18 | 0.17 ± 0.21 | 0.03 ± 0.04 | 4.25 ± 0.43 | 7.70 ± 0.66 | 0.27 ± 0.13 | 0.77 ± 0.74 | 0.27 ± 0.06 | 3.53 ± 1.10 | 0.23 ± 0.13 | 0.78 ± 1.08 | 0.24 ± 0.25 | 22.1 ± 5.40 | 5.15 ± 1.20 | 0.42 ± 0.59 | 2.81 ± 0.66 | Avg % ID, Liver: 0.37 ± 0.20 % ID; Avg % ID/gm, Spleen: 2.37 ± 1.36 % ID/gm; Avg % ID/gm, Stomach: 1.90 ± 1.60 % ID/gm
